B1: corin: N567Q (protein)
parent chain: MKQSPALAPEERCRRAGSPKPVLRADDNNMGNGCSQKLATANLLRFLLLVLIPCICALVLLLVILLSYVGTLQKVYFKSNGSEPLVTDGEIQGSDVILTNTIYNQSTVVSTAHPDQHVPAWTTDASLPGDQSHRNTSACMNITHSQCQMLPYHATLTPLLSVVRNMEMEKFLKFFTYLHRLSCYQHIMLFGCTLAFPECIIDGDDSHGLLPCRSFCEAAKEGCESVLGMVNYSWPDFLRCSQFRNQTESSNVSRICFSPQQENGKQLLCGRGENFLCASGICIPGKLQCNGYNDCDDWSDEAHCNCSENLFHCHTGKCLNYSLVCDGYDDCGDLSDEQNCDCNPTTEHRCGDGRCIAMEWVCDGDHDCVDKSDEVNCSCHSQGLVECRNGQCIPSTFQCDGDEDCKDGSDEENCSVIQTSCQEGDQRCLYNPCLDSCGGSSLCDPNNSLNNCSQCEPITLELCMNLPYNSTSYPNYFGHRTQKEASISWESSLFPALVQTNCYKYLMFFSCTILVPKCDVNTGEHIPPCRALCEHSKERCESVLGIVGLQWPEDTDCSQFPEENSDNQTCLMPDEYVEECSPSHFKCRSGQCVLASRRCDGQADCDDDSDEENCGCKERDLWECPSNKQCLKHTVICDGFPDCPDYMDEKNCSFCQDDELECANHACVSRDLWCDGEADCSDSSDEWDCVTLSINVNSSSFLMVHRAATEHHVCADGWQEILSQLACKQMGLGEPSVTKLIQEQEKEPRWLTLHSNWESLNGTTLHELLVNGQSCESRSKISLLCTKQDCGRRPAARMNKRILGGRTSRPGRWPWQCSLQSEPSGHICGCVLIAKKWVLTVAHCFEGRENAAVWKVVLGINNLDHPSVFMQTRFVKTIILHPRYSRAVVDYDISIVELSEDISETGYVRPVCLPNPEQWLEPDTYCYITGWGHMGNKMPFKLQEGEVRIISLEHCQSYFDMKTITTRMICAGYESGTVDSCMGDSGGPLVCEKPGGRWTLFGLTSWGSVCFSKVLGPGVYSNVSYFVEWIKRQIYIQTFLLN
B2: corin: N1022Q (protein)
parent chain: B1 parent chain
B3: corin: N651Q (protein)
parent chain: B1 parent chain
B4: corin: N697Q (protein)
parent chain: B1 parent chain
B5: corin: N761Q (protein)
parent chain: B1 parent chain

The nature of the data set: immunostaining, confocal microscopy, FBL/FTotal ratio in polarized MDCK cells. The conditions noted are these: glycan lost; control: corin WT.
As to B1, the localisation_or_trafficking result is reported as “no change”.
To B2 belongs “no change”; to B3, “no change”; to B4, “no change”.
To B5 belongs “no change”.

For the origin of these results see publication PMC7605860.
